Data as given in patent US20230065306A1 (INHIBRX, published 2023).
Like-named read-outs stand apart in the source and are kept apart here.

B1: hz4F2v3-IgG1 (Fc fusion)
chain: EVQLVESGGGEVQPGGSLRLSCAASGRTVSNYPMAWFRQAPGKEREFVAHISWSGITSILNSVNDRFTISRDNAKNTIYLQMSSLRAEDTAVYYCAAAQRPTAGPKGPFGYWGQGTLVTVDKTHTCPPCPAPGGPSVFLFPPKPKDTLMISRTPEVTCVVVDVSHEDPEVKFNWYVDGVEVHNAKTKPREEQYNSTYRVVSVLTVLHQDWLNGKEYKCKVSNKALPAPIEKTISKAKGQPREPQVYTLPPSRDELTKNQVSLTCLVKGFYPSDIAVEWESNGQPENNYKTTPPVLDSDGSFFLYSKLTVDKSRWQQGNVFSCSVMHEALHNHYTQKSLSLSPGK
notes: also called hz4F2v3 sdAb
B2: C5-IgG1 (Fc fusion)
chain: QVTLRESGGGLVQAGGSLRLSCKGSGRAINTYAMGWFRQAPGKEREFVAAISWNGGHTRYADSVQGRFAISRDNADNTMYLQMNSLKPEDTAVYHCAAYSDYHRIATMEADADSWGQGTQVTVDKTHTCPPCPAPGGPSVFLFPPKPKDTLMISRTPEVTCVVVDVSHEDPEVKFNWYVDGVEVHNAKTKPREEQYNSTYRVVSVLTVLHQDWLNGKEYKCKVSNKALPAPIEKTISKAKGQPREPQVYTLPPSRDELTKNQVSLTCLVKGFYPSDIAVEWESNGQPENNYKTTPPVLDSDGSFFLYSKLTVDKSRWQQGNVFSCSVMHEALHNHYTQKSLSLSPGK
notes: also called sdAb C5
B3: hz1F5v6-IgG1 (Fc fusion)
chain: EVQLVESGGGEVQPGGSLRLSCAASGRAINMYAMGWFRQAPGKEREFVAAINWNAAYTQYAESVKGRFTISRDNAKNTLYLQMSSLRAEDTAVYYCSADADYNTYVSPNKRVSYWGQGTLVTVKPDKTHTCPPCPAPGGPSVFLFPPKPKDTLMISRTPEVTCVVVDVSHEDPEVKFNWYVDGVEVHNAKTKPREEQYNSTYRVVSVLTVLHQDWLNGKEYKCKVSNKALPAPIEKTISKAKGQPREPQVYTLPPSRDELTKNQVSLTCLVKGFYPSDIAVEWESNGQPENNYKTTPPVLDSDGSFFLYSKLTVDKSRWQQGNVFSCSVMHEALHNHYTQKSLSLSPGK

How the values were obtained:
CD123-his [1] = molecular target: T1, CD123-his; test: BLI, CD123-his on Ni-NTA sensors preloaded with hz1B11v28, second sdAb 100 nM
T1 construct: also called histidine tagged human CD123; His-tagged CD123 ECD
T1 extracellular domain with C-terminal His tag: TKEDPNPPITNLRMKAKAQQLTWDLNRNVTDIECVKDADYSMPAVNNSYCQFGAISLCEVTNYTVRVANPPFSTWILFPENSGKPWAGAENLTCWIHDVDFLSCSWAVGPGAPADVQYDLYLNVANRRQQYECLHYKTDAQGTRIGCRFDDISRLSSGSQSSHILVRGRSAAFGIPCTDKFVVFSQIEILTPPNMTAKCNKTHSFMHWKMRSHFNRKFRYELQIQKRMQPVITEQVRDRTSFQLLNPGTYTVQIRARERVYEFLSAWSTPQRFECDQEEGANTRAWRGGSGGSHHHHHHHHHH
Experimental: (§1) The epitopes of single domain antibodies (sdAbs) that comprise VHH domains that bind CD123 were compared using Bio-Layer Interferometry. 5 ug/mL of histidine tagged human CD123 was immobilized on Nickel-nitrilotriacetic acid (Ni-NTA) coated capture sensors. 100 nM of one sdAb was then loaded onto the CD123 antigen and allowed to come to equilibrium. The sensors were then transferred into 100 nM of a second sdAb.

[2] = molecular target: T2, human CD123 (full-length, on cells) (human, UniProt P26951 19-378); test: flow cytometry on HEK 293 cells transfected with full-length CD123; apparent Kd, one-site fit
T2 construct: also called CD123-FL; interleukin-3 receptor alpha chain
Experimental: (§2) Binding of sdAbs to human CD123 was assessed by flow cytometry. […] HEK 293 cells were transiently transfected with a plasmid encoding full-length CD123 (UniProt Accession No. P26951-1; mature form, SEQ ID NO: 1) and used as the positive cell line in FIGS. 2A to 2M, and untransfected HEK 293 cells were used as CD123-negative cells. In FIG. 2N, Molm-13 cells, which express CD123, were used as the positive cell line. Each cell type was plated at 30,000 cells/well in FACS buffer (PBS 1% BSA, 0.1% NaN₃ pH 7.4) on a 96-well round-bottom plate. The sdAbs were diluted in FACS buffer in a 3-fold, 11 point serial dilution. The sdAb dilutions were added to the plated cells, and assay plates were incubated for 30 minutes at 4° C. After washing twice in 150 μL of FACS buffer, cells in each well were resuspended in 100 μL of 1:2000 Alexa Fluor 647-conjugated Anti-Human IgG secondary diluted in FACS buffer and incubated at 4° C. for 30 minutes. The cells were washed twice more, then bound antibody was detected by flow cytometry.
(§3) Flow cytometric analysis was performed on an Intellicyte iQue Plus and fluorescence was plotted as median fluorescence intensity. The apparent affinity (Kd, nM) was determined using one site binding non-linear regression in PRISM graph software.
Target sequence in this assay (P26951 19-378): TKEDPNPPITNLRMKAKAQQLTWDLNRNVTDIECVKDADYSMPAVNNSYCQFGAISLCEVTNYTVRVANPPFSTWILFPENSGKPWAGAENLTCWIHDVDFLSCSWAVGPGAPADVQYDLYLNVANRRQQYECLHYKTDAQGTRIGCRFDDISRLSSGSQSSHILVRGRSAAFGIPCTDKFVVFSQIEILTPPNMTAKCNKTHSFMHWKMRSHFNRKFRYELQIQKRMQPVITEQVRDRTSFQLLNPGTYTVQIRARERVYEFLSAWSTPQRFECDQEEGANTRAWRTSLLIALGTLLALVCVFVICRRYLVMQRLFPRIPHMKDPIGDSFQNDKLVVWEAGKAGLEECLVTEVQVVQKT

[3] = molecular target: T2, human CD123 (full-length, on cells); test: flow cytometry, HEK 293 cells transfected with full-length CD123 (CD123-FL); Median RL-1H
Experimental: as §2, §3
Target sequence in this assay (P26951 19-378): as above

CD123-his [4] = molecular target: T1, CD123-his; test: BLI, CD123-his on Ni-NTA sensors preloaded with hzA5v2, second sdAb 100 nM
Experimental: as §1

[5] = molecular target: T2, human CD123 (full-length, on cells); test: flow cytometry blocking assay, sdAb titrated on CD123-expressing HEK-293 cells with a fixed amount of IL-3-mFc
Experimental: (§4) Certain CD123-binding sdAbs were tested for the ability to block CD123 binding to IL-3 by titrating the sdAb onto CD123 expressing HEK-293 cells in the presence of a fixed amount of recombinant IL-3-mFc. Bound IL-3 was detected by flow cytometry using fluorophore conjugated anti-mouse IgG specific secondary antibody.

[6] = molecular target: T2, human CD123 (full-length, on cells); test: as above; remark: listed apart in the source
Experimental: as §4

[7] = molecular target: T2, human CD123 (full-length, on cells); test: flow cytometry, Molm-13 cells expressing CD123; Median RL1-H
Experimental: as §2, §3

[8] = molecular target: T2, human CD123 (full-length, on cells); test: flow cytometry on Molm-13 cells, which express CD123; apparent Kd, one-site fit; apparent Kd by flow cytometry on CD123-expressing cells; the places shown do not name the cell line for this sdAb
Experimental: as §2, §3

| Binder | binding result (CD123-his [1]) | Kd [2] | EC50 (read off the curve) [3] | binding result (CD123-his [4]) | IC50 (read off the curve) [5] | IC50 (read off the curve) [6] | EC50 (read off the curve) [7] | Kd [8] |
| --- | --- | --- | --- | --- | --- | --- | --- | --- |
| B1 | binds | 2.4 nM | 2 to 3 nM | – | – | – | – | – |
| B2 | – | – | ~1 nM | binds | ~2 nM | ~0.7 nM | – | – |
| B3 | – | – | – | – | – | – | ~1 nM | 1.36 nM |
